Article PMC8136917, “The glycosyltransferase UGT76B1 modulates N-hydroxy-pipecolic acid homeostasis and plant immunity” (The Plant Cell, 2021)

How the values were obtained:
[1] = substrate: O=C(O)[C@@H]1CCCCN1O; test: UPLC-nanoESI-QTRAP-MS of product NHP-OGlc; Hill regression; format: biochemical, Arabidopsis thaliana; conditions: UDP-glucose co-substrate (2 mM in methods); 5 min at 25°C (Figure 6 legend; methods say 15 min at 30°C)
[2] = substrate: O=C(O)c1ccccc1O; test: UPLC-nanoESI-QTRAP-MS of product SAG; Hill regression; format: biochemical, Arabidopsis thaliana; conditions: UDP-glucose co-substrate (2 mM in methods); 5 min at 25°C (Figure 6 legend; methods say 15 min at 30°C)

B1: UGT76B1 (Arabidopsis thaliana) (protein)
chain: METRETKPVIFLFPFPLQGHLNPMFQLANIFFNRGFSITVIHTEFNSPNSSNFPHFTFVSIPDSLSEPESYPDVIEILHDLNSKCVAPFGDCLKKLISEEPTAACVIVDALWYFTHDLTEKFNFPRIVLRTVNLSAFVAFSKFHVLREKGYLSLQETKADSPVPELPYLRMKDLPWFQTEDPRSGDKLQIGVMKSLKSSSGIIFNAIEDLETDQLDEARIEFPVPLFCIGPFHRYVSASSSSLLAHDMTCLSWLDKQATNSVIYASLGSIASIDESEFLEIAWGLRNSNQPFLWVVRPGLIHGKEWIEILPKGFIENLEGRGKIVKWAPQPEVLAHRATGGFLTHCGWNSTLEGICEAIPMICRPSFGDQRVNARYINDVWKIGLHLENKVERLVIENAVRTLMTSSEGEEIRKRIMPMKETVEQCLKLGGSSFRNLENLIAYILSF
Km [1]: 191 ± 14 µM
Km [2]: 75 ± 2 µM
